Results on ten molecules are retold here after publication PMC8465637, “Three ParA Dimers Cooperatively Assemble on Type Ia Partition Promoters” (Genes, 2021).

Series [1] concerns the target T1, ParA_F (SopA) (plasmid F, UniProt P62556 1-388).
T1 sequence: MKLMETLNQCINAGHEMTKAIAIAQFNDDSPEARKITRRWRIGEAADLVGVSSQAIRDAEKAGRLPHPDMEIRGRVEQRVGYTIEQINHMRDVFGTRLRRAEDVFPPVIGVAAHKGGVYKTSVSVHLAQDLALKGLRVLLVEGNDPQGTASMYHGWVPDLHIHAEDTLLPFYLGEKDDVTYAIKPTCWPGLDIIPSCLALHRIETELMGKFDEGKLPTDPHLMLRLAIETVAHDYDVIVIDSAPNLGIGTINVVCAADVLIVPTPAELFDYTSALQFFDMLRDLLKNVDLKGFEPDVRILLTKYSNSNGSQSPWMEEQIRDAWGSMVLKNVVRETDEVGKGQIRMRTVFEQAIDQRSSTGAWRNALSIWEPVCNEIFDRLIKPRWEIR
Description: fluorescence titration. As to conditions: apparent Kd; EMSA: 30 mM HEPES-KOH pH 7.5, 150 mM KCl, 3 mM MgCl2, 1 mM DTT, 10% glycerol, 37 C; SPR: 20 mM Hepes-KOH pH 7.4, 100 mM KCl, 10 mM MgCl2, 1 mM DTT, 24 C; MST: ….

In series [2] the test system is ParB_F (SopB) (plasmid F). The series is described as follows: EMSA. As to conditions: apparent Kd; EMSA: 30 mM HEPES-KOH pH 7.5, 150 mM KCl, 3 mM MgCl2, 1 mM DTT, 10% glycerol, 37 C; SPR: 20 mM Hepes-KOH pH 7.4, 100 mM KCl, 10 mM MgCl2, 1 mM DTT, 24 C; MST: …. In general terms: In EMSA bound probe runs differently from free probe, usually more slowly.
Series [3] concerns the target T1, ParA_F (SopA). The series is described as follows: SPR; 10 mM Mg2+, no nucleotide; 3 dimers per DNA; EMSA: 30 mM HEPES-KOH pH 7.5, 150 mM KCl, 3 mM MgCl2, 1 mM DTT, 10% glycerol, 37 C; SPR: 20 mM Hepes-KOH pH 7.4, 100 mM KCl, 10 mM MgCl2, 1 mM DTT, 24 C; MST: 10 mM Tris-HCl pH 8, 150 mM NaCl, 50 mM CaCl2, 0.05% Tween 20, 20 mg/mL BSA, 25 C. As to conditions: protein: recombinant; tags: none (native); chain copies: 2; label: biotin.

Series [4] addresses T1, ParA_F (SopA). Description: SPR; EMSA: 30 mM HEPES-KOH pH 7.5, 150 mM KCl, 3 mM MgCl2, 1 mM DTT, 10% glycerol, 37 C; SPR: 20 mM Hepes-KOH pH 7.4, 100 mM KCl, 10 mM MgCl2, 1 mM DTT, 24 C; MST: 10 mM Tris-HCl pH 8, 150 mM NaCl, 50 mM CaCl2, 0.05% Tween 20, 20 mg/mL BSA, 25 C. As to conditions: protein: recombinant; tags: none (native); chain copies: 2; label: biotin. On the technique in general: Surface plasmon resonance follows binding to a sensor surface in real time, without labels.

The target of series [5] is T1, ParA_F (SopA). The series is described as follows: MST; no nucleotide; EMSA: 30 mM HEPES-KOH pH 7.5, 150 mM KCl, 3 mM MgCl2, 1 mM DTT, 10% glycerol, 37 C; SPR: 20 mM Hepes-KOH pH 7.4, 100 mM KCl, 10 mM MgCl2, 1 mM DTT, 24 C; MST: 10 mM Tris-HCl pH 8, 150 mM NaCl, 50 mM CaCl2, 0.05% Tween 20, 20 mg/mL BSA, 25 C. Particulars: protein: recombinant; tags: none (native); chain copies: 2; label: 5' Cy3.

In series [6] the target is T1, ParA_F (SopA). Description: fluorescence titration; EMSA: 30 mM HEPES-KOH pH 7.5, 150 mM KCl, 3 mM MgCl2, 1 mM DTT, 10% glycerol, 37 C; SPR: 20 mM Hepes-KOH pH 7.4, 100 mM KCl, 10 mM MgCl2, 1 mM DTT, 24 C; MST: 10 mM Tris-HCl pH 8, 150 mM NaCl, 50 mM CaCl2, 0.05% Tween 20, 20 mg/mL BSA, 25 C. As to conditions: protein: recombinant; tags: none (native); chain copies: 2; label: 5' Cy3.

Series [7] deals with T1, ParA_F (SopA). The series is described as follows: EMSA; 3 mM Mg2+, apparent Kd; EMSA: 30 mM HEPES-KOH pH 7.5, 150 mM KCl, 3 mM MgCl2, 1 mM DTT, 10% glycerol, 37 C; SPR: 20 mM Hepes-KOH pH 7.4, 100 mM KCl, 10 mM MgCl2, 1 mM DTT, 24 C; MST: 10 mM Tris-HCl pH 8, 150 mM NaCl, 50 mM CaCl2, 0.05% Tween 20, 20 mg/mL BSA, 25 C. As to conditions: protein: recombinant; tags: none (native); chain copies: 2; label: 5' Cy3.

In series [8] the target is T1, ParA_F (SopA). Description: EMSA; equimolar ParB_F; estimate close to the probe concentration; no supershift; EMSA: 30 mM HEPES-KOH pH 7.5, 150 mM KCl, 3 mM MgCl2, 1 mM DTT, 10% glycerol, 37 C; SPR: 20 mM Hepes-KOH pH 7.4, 100 mM KCl, 10 mM MgCl2, 1 mM DTT, 24 C; MST: 10 mM Tris-HCl pH 8, 150 mM NaCl, 50 mM CaCl2, 0.05% Tween 20, 20 mg/mL BSA, 25 C. As to conditions: protein: recombinant; tags: none (native); chain copies: 2; label: 5' Cy3.

Series [9] addresses T1, ParA_F (SopA). The series is described as follows: SPR; 1 uM ParA_F, no nucleotide; EMSA: 30 mM HEPES-KOH pH 7.5, 150 mM KCl, 3 mM MgCl2, 1 mM DTT, 10% glycerol, 37 C; SPR: 20 mM Hepes-KOH pH 7.4, 100 mM KCl, 10 mM MgCl2, 1 mM DTT, 24 C; MST: 10 mM Tris-HCl pH 8, 150 mM NaCl, 50 mM CaCl2, 0.05% Tween 20, 20 mg/mL BSA, 25 C. Particulars: protein: recombinant; tags: none (native); chain copies: 2; label: biotin.

In series [10] the target is T1, ParA_F (SopA). The series is described as follows: EMSA; 3 uM ParA_F; EMSA: 30 mM HEPES-KOH pH 7.5, 150 mM KCl, 3 mM MgCl2, 1 mM DTT, 10% glycerol, 37 C; SPR: 20 mM Hepes-KOH pH 7.4, 100 mM KCl, 10 mM MgCl2, 1 mM DTT, 24 C; MST: 10 mM Tris-HCl pH 8, 150 mM NaCl, 50 mM CaCl2, 0.05% Tween 20, 20 mg/mL BSA, 25 C. Particulars: protein: recombinant; tags: none (native); chain copies: 2; label: 5' Cy3.

Series [11] addresses T1, ParA_F (SopA). The series is described as follows: fluorescence titration; apparent Kd; EMSA: 30 mM HEPES-KOH pH 7.5, 150 mM KCl, 3 mM MgCl2, 1 mM DTT, 10% glycerol, 37 C; SPR: 20 mM Hepes-KOH pH 7.4, 100 mM KCl, 10 mM MgCl2, 1 mM DTT, 24 C; MST: 10 mM Tris-HCl pH 8, 150 mM NaCl, 50 mM CaCl2, 0.05% Tween 20, 20 mg/mL BSA, 25 C. Particulars: protein: recombinant; tags: none (native); chain copies: 2; label: 5' Cy3.

Series [12] deals with the molecule itself. The series is described as follows: SEC; analytical gel filtration on a calibrated Superdex 75 10/300GL column; ParAF 4 µM in buffer E (50 mM bis-Tris pH 6, 400 mM NaCl, 0.5 mM DTT), with or without 1 mM ADP; one peak at 9.5 mL.

Residue numbers refer to the chain shown, from its start.

Take 75-bp probe with motifs #1 and #3: the Kd with ParA_F (SopA) [1] is 1200 nM. Take “120-bp Cy3 probe for ParB_F (non-specific)”: the Kd in [2] is 1000 nM.

B1: PparAB_F 136-bp (dsDNA)
DNA 1: ATCTCCTTTTGTAGTGTTGCTCTTATTTTAAACAACTTTGCGGTTTTTTGATGACTTTGCGATTTTGTTGTTGCTTTGCAGTAAATTGCAAGATTTAATAAAAAAACGCAAAGCAATGATTAAAGGATGTTCAGAA
DNA 2: TTCTGAACATCCTTTAATCATTGCTTTGCGTTTTTTTATTAAATCTTGCAATTTACTGCAAAGCAACAACAAAATCGCAAAGTCATCAAAAAACCGCAAAGTTGTTTAAAATAAGAGCAACACTACAAAAGGAGAT
For the molecule B1, the binding result in the series with ParA_F (SopA) [3] is on record as “binds”.

B2: PparAB_F 58-bp (IR3-4) (dsDNA)
DNA 1: TTGTTGTTGCTTTGCAGTAAATTGCAAGATTTAATAAAAAAACGCAAAGCAATGATTA
DNA 2: TAATCATTGCTTTGCGTTTTTTTATTAAATCTTGCAATTTACTGCAAAGCAACAACAA
With B2, the binding result in the series with ParA_F (SopA) [4] is “no binding”.

B3: PparAB_F 120-bp (motifs 122'34) (dsDNA)
DNA 1: GTAGTGTTGCTCTTATTTTAAACAACTTTGCGGTTTTTTGATGACTTTGCGATTTTGTTGTTGCTTTGCAGTAAATTGCAAGATTTAATAAAAAAACGCAAAGCAATGATTAAAGGATGT
DNA 2: ACATCCTTTAATCATTGCTTTGCGTTTTTTTATTAAATCTTGCAATTTACTGCAAAGCAACAACAAAATCGCAAAGTCATCAAAAAACCGCAAAGTTGTTTAAAATAAGAGCAACACTAC
On to B3, for which the Kd with ParA_F (SopA) [5] is 140 ± 23 nM; in the series with ParA_F (SopA) [6], 130 nM; in the series with ParA_F (SopA) [7], 85 ± 20 nM; with ParA_F (SopA) [8] it was ~10 nM.

B4: nsDNA 136-bp (dsDNA)
DNA 1: CAGTGAATTGTAATACGACTCACTATAGGGCGAATTGGAGCTCCACCGCGGTGGCGGCCGCTCTAGAACTAGTGGATCCCCCGGGCTGCAGGAATTCGATATCAAGCTTATCGATACCGTCGACCTCGAGGGGGGG
DNA 2: CCCCCCCTCGAGGTCGACGGTATCGATAAGCTTGATATCGAATTCCTGCAGCCCGGGGGATCCACTAGTTCTAGAGCGGCCGCCACCGCGGTGGAGCTCCAATTCGCCCTATAGTGAGTCGTATTACAATTCACTG
As for B4, the binding result with ParA_F (SopA) [9] is “no binding”.

B5: 120-bp IR2-2* (perfect IR in the middle) (dsDNA)
DNA 1: GTAGTGTTGCTCTTATTTTAAACAATCAGTAGGTTTTTTGATGACTTTGCGATTTTGTTGTTGTCAGTAAGTAAATTGCAAAGTTTAATAAAAAAACTCAGTACAATGATTAAAGGATGT
DNA 2: ACATCCTTTAATCATTGTACTGAGTTTTTTTATTAAACTTTGCAATTTACTTACTGACAACAACAAAATCGCAAAGTCATCAAAAAACCTACTGATTGTTTAAAATAAGAGCAACACTAC
Regarding B5, in the series with ParA_F (SopA) [10], the binding result is on record as “no binding”.

B6: 120-bp IR2-2*4 (dsDNA)
DNA 1: B5 DNA 1 with T98G, G101A, T102A, A103G
DNA 2: B5 DNA 2 with T18C, A19T, C20T, A23C
With B6, the binding result with ParA_F (SopA) [10] is given as “no binding”.

B7: 80-bp IR3-4 probe (dsDNA)
DNA 1: GGTTTTTTGATGAGTCTCTGATTTTGTTGTTGCTTTGCAGTAAATTCAGAGATTTAATAAAAAAACGCAAAGCAATGATT
DNA 2: AATCATTGCTTTGCGTTTTTTTATTAAATCTCTGAATTTACTGCAAAGCAACAACAAAATCAGAGACTCATCAAAAAACC
Turning to B7, the Kd in the series with ParA_F (SopA) [11] came out at 500 ± 325 nM.

B8: ParAF (ParA of the Escherichia coli plasmid F partition system ParABSF) (natural protein, UniProt P62556 1-388, looked up)
chain: T1 sequence
notes: native protein; also called SopA; source: E. coli strain DLT812 derivative carrying pDAG127 (ParaBAD::parAF), purified (heparin, Superdex 200, mono-Q)
For B8, the stoichiometry N (commonly the number of molecules, sites or subunits per partner or assembly) in series [12] came to 2.
